What all share (experiment): BLI (ForteBio), IgG on AHQ sensor, 100 nM TIGIT-his, monovalent, 1:1 model
Background: Biolayer interferometry detects binding as a change in optical thickness at a sensor tip.

One assay has as its target T1, mouse TIGIT-his protein (mouse, UniProt P86176 29-148).
T1 construct: not shown: his tag
T1 sequence: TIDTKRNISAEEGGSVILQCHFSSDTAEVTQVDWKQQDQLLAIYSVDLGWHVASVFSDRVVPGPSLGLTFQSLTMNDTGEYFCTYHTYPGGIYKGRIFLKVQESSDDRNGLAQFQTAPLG
Here is the method:
(§1) Biofilm layer optical interference technology (ForteBio) was used to determine the binding and dissociation […] values of the anti-TIGIT monoclonal antibodies obtained in Example 1 to human, cynomolgus monkey and mouse TIGIT. Fortebio affinity measurements were performed according to existing methods (Este, P et al., High throughput solution-based measurement of antibody-antigen affinity and epitope binning. Mabs, 2013.5(2): p 270-8).
(§2) The antibody-loaded sensor was incubated in 100 nM TIGIT-his antigen to the plateau phase, and then the sensor was transferred to an analysis buffer and incubated for at least 2 minutes for measuring dissociation rate. The kinetic analysis was performed using a 1:1 binding model.

The next assay concerns the target T2, human TIGIT-his protein (human, UniProt Q495A1 22-141).
T2 construct: not shown: his tag
T2 sequence: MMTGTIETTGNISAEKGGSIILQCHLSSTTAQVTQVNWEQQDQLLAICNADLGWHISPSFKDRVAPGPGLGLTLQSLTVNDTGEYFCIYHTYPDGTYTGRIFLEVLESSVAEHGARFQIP
As to the method: as §1, §2

The target of assay [1] is T3, cynomolgus monkey TIGIT-his protein (cynomolgus monkey).
T3 construct: also called Cynomolgus TIGIT-his; not shown: his tag
Here is the method: as §1, §2

T3 sequence (chain, as listed by the source): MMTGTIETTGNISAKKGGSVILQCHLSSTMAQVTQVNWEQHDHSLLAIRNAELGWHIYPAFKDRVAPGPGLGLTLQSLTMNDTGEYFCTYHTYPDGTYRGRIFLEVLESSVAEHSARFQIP

B1: anti-TIGIT monoclonal antibody 55796-G1 (antibody, V domains shown)
VH: QLQLQESGPGLVKPAETLSLTCTVSGGSISSYDHYWTWIRQPPGKGLEWIGTVYYSGSTFHNPSLKSRVTIPVDTSKNQFSLKLSSVTAADTAVYYCARVGPDVSHPPFDYWGQGTLVTVSS
VL: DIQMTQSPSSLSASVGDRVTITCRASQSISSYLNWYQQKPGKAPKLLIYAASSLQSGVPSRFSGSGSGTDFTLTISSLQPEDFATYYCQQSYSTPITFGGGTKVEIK
notes: Wild-type human IgG1 heavy chain constant region, human kappa light chain constant region
As for B1, the values for the Kd (in the assay with mouse TIGIT-his protein; with human TIGIT-his protein; in assay [1]) were 96 nM, 0.199 nM and 4.72 nM, respectively.

B2: anti-TIGIT monoclonal antibody 55796-G1LALA (antibody, V domains shown)
VH: QLQLQESGPGLVKPAETLSLTCTVSGGSISSYDHYWTWIRQPPGKGLEWIGTVYYSGSTFHNPSLKSRVTIPVDTSKNQFSLKLSSVTAADTAVYYCARVGPDVSHPPFDYWGQGTLVTVSS
VL: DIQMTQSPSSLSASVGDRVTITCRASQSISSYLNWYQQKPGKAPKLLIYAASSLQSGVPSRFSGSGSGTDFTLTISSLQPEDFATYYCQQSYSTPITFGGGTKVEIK
notes: Human IgG1 heavy chain constant region modified by L234A, L235A; human kappa light chain constant region; HEK293
For B2, the dissociation constant (Kd) (in general, the concentration at which binding is half-saturated) is 61 nM in the assay with mouse TIGIT-his protein, 0.21 nM with human TIGIT-his protein and 4.9 nM in assay [1].
